B1: TNF-related apoptosis-inducing ligand (protein, listed as Homo sapiens)
chain: MAMMEVQGGPSLGQTCVLIVIFTVLLQSLCVAVTYVYFTNELKQMQDKYSKSGIACFLKEDDSYWDPNDEESMNSPCWQVKWQLRQLVRKMILRTSEETISTVQEKQQNISPLVRERGPQRVAAHITGTRGRSNTLSSPNSKNEKALGRKINSWESSRSGHSFLSNLHLRNGELVIHEKGFYYIYSQTYFRFQEEIKENTKNDKQMVQYIYKYTSYPDPILLMKSARNSCWSKDAEYGLYSIYQGGIFELKENDRIFVSVTNEHLIDMDHEASFFGAFLVG
notes: death receptor (DR4/5) ligand used to treat cancer cell lines

Experiments:
[1] = test system: rGBMnDR4/5-ST-TK-GF1; experiment: Intracranial implantation of sECM-encapsulated rGBMnDR4/5-ST-TK-GF1 in SCID mice, growth and GCV clearance (BLI); type: in vivo
Source text: (1) Nodular recurrent GBM resection model: Local retention of therapeutic cells can be achieved by encapsulation of therapeutic cells into biodegradable synthetic extracellular matrix (sECM) before implantation into the resection cavity (16).

[2] = test system: rGBMi2-TK cells; experiment: GCV-induced clearance of HSV-TK engineered rGBM in vitro (cell viability); type: cell-based, human; conditions: in comparison to controls
Protocol: Cell viability and caspase assays: Tumor cells were plated in 96-well plates and treated with different doses of S-TRAIL for 24 hours and different doses of GCV for up to 96 hours. Cell viability was measured using an ATP-dependent luminescent reagent (CellTiter Glo, Promega) for non-Fluc expressing cells, or with luciferin or coelenterazine for Fluc- and Rluc-expressing cells, respectively. Caspase activity was determined using a DEVD-aminoluciferin assay (Caspase-3/7 Glo, Promega) according to the manufacturer's instructions. Experiments were performed in triplicate.

[3] = test system: rGBMnDR4/5-ST-TK; experiment: GCV titration of DR4/5 knockout line with HSV-TK in vitro; type: cell-based, human; conditions: as opposed to non-TK control lines
Protocol: (§1) Thus, should tumors acquire a DRL-resistant phenotype during adjuvant clinical therapy and tumor recurrence, TK-induced bystander effect of therapeutic self-cells might still provide robust treatment efficacy.
(§2) Lentiviral transductions and engineering of stable cell lines: Lentiviral packaging was performed by transfection of 293T cells as previously described (73), and cells were transduced with lentiviral vectors at M.O.I of 2 in medium containing protamine sulfate (2 μg/ml). For bioluminescence imaging, cancer cells were transduced with LV-Pico2-Fluc-mCherry, LV-Pico2-Rluc-mCherry, or LV-Pico2-Fluc-GFP and selected by FACS using a BD FACSAriaTM Fusion cell sorter or puromycin selection (1 μg/ml) in culture. GFP or mCherry expression was visualized by fluorescence microscopy. […] Cell viability was measured using an ATP-dependent luminescent reagent (CellTiter Glo, Promega) for non-Fluc expressing cells, or with luciferin or coelenterazine for Fluc- and Rluc-expressing cells, respectively. Caspase activity was determined using a DEVD-aminoluciferin assay (Caspase-3/7 Glo, Promega) according to the manufacturer's instructions. Experiments were performed in triplicate. […]

[4] = test system: rGBMiDR4/5-ST-TK; experiment: as above; type: cell-based, human; conditions: as opposed to non-TK control lines
Protocol: as §1, §2

[5] = test system: 293 Ts engineered with LV-IFNβ/zeo-HSV/TK; experiment: Cell viability after GCV treatment; type: cell-based
[6] = test system: CT2a-GMCSF-mIFNaR1KO engineered with LV-IFNβ/zeo-HSV/TK; experiment: Cell viability after GCV treatment; type: cell-based, mouse
Source text: FIG. 2A details the concept to test if CT2a-IFNaR1-KO can be engineered with LV-IFNβ/zeo-HSV/TK.

[7] = test system: rGBMi2-ST-TK; experiment: 18F-FHBG PET imaging of GCV-induced cell clearance; type: in vivo, mice; conditions: after 10 days of daily GCV treatment
Protocol: PET imaging: Mice implanted intracranially with rGBMi2-TK-GF1 were fasted for 4 hours before imaging, anesthetized with 2% isoflurane and 100% oxygen, and injected with 500 μCi of 18F-FHBG via the tail vein. Two hours later, a static dataset was acquired for 60 minutes in 1 bed position (FOV 4.2 cm) using an energy window of 250-700 keV for each mouse. Images were reconstructed using a 2D OSEM algorithm with 2 iterations and 16 subsets. For measuring the mean and maximum standardized uptake values (SUVmean and SUVmax) and metabolic tumor volume (MTV), three-dimensional (3D) regions of interest were drawn over the mouse brain, and uptake values were measured using the explore Vista software (GE Healthcare). The maximum intensity projection images were generated using ImageJ. After the baseline PET scan at day 0, mice were treated daily with GCV (10 mg/kg) and imaged again by PET at day 10 after GCV treatment.

[8] = test system: GBM8 (sGBMi); experiment: TRAIL sensitivity screen/titration (cell viability); type: cell-based, human; conditions: invasive GBM cell line
Source text: (§3) To investigate the therapeutic efficacy of receptor-targeted molecules, the Inventors tested a panel of different cancer cell lines for their susceptibility to treatment with cell surface receptor ligands/antagonists targeting CD36 (thrombospondin-1, TSP), epidermal growth factor receptor (EGFR) (EGFR-blocking nanobody, Nb), heterodimeric interleukin 20 receptor (IL20R) comprised of subunits α and β (interleukin 24, IL24), and DRs (TRAIL) (FIG. 6 C). A nodular (n) and an invasive (i) GBM cell line (Gli36Δ-EGFR and GBM8, respectively) were screened and found to be DR ligand (DRL)-sensitive(s) (herein referred to as sGBMn and sGBMi). The following non-GBM cancer lines were also identified as DRL-sensitive: PC3 (sPCm), Jurkat (sTCL), HCT116 (sCC), and MDA231-BrM2a (sBCm). […] In addition to the above DRL-sensitive(s) cell lines, three DRL-resistant (r) GBM cell lines were identified (GBM23, GBM64, GBM46, herein referred to as rGBMi1, rGBMi2, rGBMi3) (FIG. 6D). Based on these findings, DR4 and DR5 were chosen as the most suitable candidates to further investigate the therapeutic potential of receptor self-targeted therapies.
(§4) Lentiviral transductions and engineering of stable cell lines: Lentiviral packaging was performed by transfection of 293T cells as previously described (73), and cells were transduced with lentiviral vectors at M.O.I of 2 in medium containing protamine sulfate (2 μg/ml). For bioluminescence imaging, cancer cells were transduced with LV-Pico2-Fluc-mCherry, LV-Pico2-Rluc-mCherry, or LV-Pico2-Fluc-GFP and selected by FACS using a BD FACSAriaTM Fusion cell sorter or puromycin selection (1 μg/ml) in culture. GFP or mCherry expression was visualized by fluorescence microscopy. […] Cell viability was measured using an ATP-dependent luminescent reagent (CellTiter Glo, Promega) for non-Fluc expressing cells, or with luciferin or coelenterazine for Fluc- and Rluc-expressing cells, respectively. Caspase activity was determined using a DEVD-aminoluciferin assay (Caspase-3/7 Glo, Promega) according to the manufacturer's instructions. Experiments were performed in triplicate. For treatments with conditioned medium, plasmid vectors coding for secretable expression of CD36-targeting ligand 3TSR (a functional thrombospondin-1, TSP-1 analog) (09), EGFR-blocking ligand NB (12), IL-20Rα/β-targeting ligand IL-24 (69), and DR ligand S-TRAIL (69) were transfected into 293T cells. Medium was changed the next day, collected 40 hours after transfection, and frozen at −80° C. until further use.

[9] = test system: PC3 (sPCm); experiment: as above; type: cell-based, human
Source text: as §3, §4

[10] = test system: HCT116 (sCC); experiment: as above; type: cell-based, human
Source text: as §3, §4

[11] = test system: GBM23 (rGBMi1); experiment: as above; type: cell-based, human
Source text: as §3, §4

[12] = test system: MDA231-BrM2a (sBCm); experiment: as above; type: cell-based, human
Source text: as §3, §4

[13] = test system: Gli36Δ-EGFR (sGBMn); experiment: as above; type: cell-based, human; conditions: nodular GBM cell line
Source text: as §3, §4

[14] = test system: Jurkat (sTCL); experiment: as above; type: cell-based, human
Source text: as §3, §4

[15] = test system: GBM64 (rGBMi2); experiment: as above; type: cell-based, human
Source text: as §3, §4

[16] = test system: GBM46 (rGBMi3); experiment: as above; type: cell-based, human
Source text: as §3, §4

[17] = test system: panel of different cancer cell lines; experiment: Screen of receptor-targeted ligands/antagonists on a panel of cancer cell lines; type: cell-based, human; conditions: 72 hours after treatment; versus TSP, Nb, IL24
Source text: To investigate the therapeutic efficacy of receptor-targeted molecules, the Inventors tested a panel of different cancer cell lines for their susceptibility to treatment with cell surface receptor ligands/antagonists targeting CD36 (thrombospondin-1, TSP), epidermal growth factor receptor (EGFR) (EGFR-blocking nanobody, Nb), heterodimeric interleukin 20 receptor (IL20R) comprised of subunits α and β (interleukin 24, IL24), and DRs (TRAIL) (FIG. 6 C). A nodular (n) and an invasive (i) GBM cell line (Gli36Δ-EGFR and GBM8, respectively) were screened and found to be DR ligand (DRL)-sensitive(s) (herein referred to as sGBMn and sGBMi). […]
as §2, with “For bioluminescence imaging, cancer cells were transduced with LV-Pico2-Fluc-mCherry, LV-Pico2-Rluc-mCherry, or LV-Pico2-Fluc-GFP and selected by FACS using a BD FACSAriaTM Fusion cell sorter or puromycin selection (1 μg/ml) in culture.” left out, “instructions.” for “instructions. Experiments were performed in triplicate.”

| Molecule | time to drop of BLI signal back to baseline ([1]; after initiation of GCV therapy) [days] | GCV-induced (HSV-TK mediated) cell clearance ([1]; mouse, in vivo) | elimination of rGBMi2-TK cells [2] | cell elimination by GCV [3] | cell elimination by GCV [4] | cell-viability after GCV-treatment [5] | cell-viability after GCV-treatment [6] | tumor-specific PET signal intracranially [7] | susceptibility to DR ligand (DRL) [8] | susceptibility to DR ligand (DRL) [9] | susceptibility to DR ligand (DRL) [10] | susceptibility to DR ligand (DRL) [11] | susceptibility to DR ligand (DRL) [12] | susceptibility to DR ligand (DRL) [13] | susceptibility to DR ligand (DRL) [14] | susceptibility to DR ligand (DRL) [15] | susceptibility to DR ligand (DRL) [16] | efficacy in comparison to the other tested ligands [17] |
| --- | --- | --- | --- | --- | --- | --- | --- | --- | --- | --- | --- | --- | --- | --- | --- | --- | --- | --- |
| Nc1nc2c(ncn2COC(CO)CO)c(=O)[nH]1 [GCV, Ganciclovir] | ≤ 9 | successful cell clearance | dose- and time-dependent elimination | dose-dependent cell elimination | dose-dependent cell elimination | dose-dependent reduction of cell-viability | dose-dependent reduction of cell-viability | no longer visible |  |  |  |  |  |  |  |  |  |  |
| B1 |  |  |  |  |  |  |  |  | sensitive | DRL-sensitive | DRL-sensitive | DRL-resistant | DRL-sensitive | sensitive | DRL-sensitive | DRL-resistant | DRL-resistant | most effective agent |

Source: patent US12527821B2, “Compositions and methods related to tumor cell killers and vaccines” (THE BRIGHAM AND WOMEN'S HOSPITAL, INC., priority 2018, dated 2026)
